According to article PMC12775124, “CUL4A-DDB1-DCAF10 is an N-recognin for N-terminally acetylated Src kinases” (Nature Communications, 2026):

Columns and labels:
Lyn [1] = experiment: Lyn level after FLAG-DCAF10 overexpression; type: cell-based, human; conditions: HeLa, NMT1/2 KD 72 h, FLAG-DCAF10 overexpression 24 h
Protocol: (§1) 124 Supplementary Fig. 5. NMT1/2 knockdown leads to an increased turnover of SFKs
(§2) 125 and overexpression of DCAF10 reduces SFK levels after NMT1/2 knockdown.
(§3) 126 a) HeLa cells were treated with NMT1/2 siRNA for 72 h or left untreated in combination
(§4) 127 with FLAG-DCAF10 overexpression for 24 h. Representative WBs are shown. b-c) Left:
(§5) 128 WB quantifications with and without NMT1/2 siRNA of Lyn (b) and THOC7 (c)
(§6) Right: Fold change of Lyn (b) and THOC7 (c) after DCAF10
(§7) 130 overexpression. Untreated: purple; with NMT1/2 RNAi: blue. Individual data points are
(§8) 131 indicated (n = 2 or 3 independent biological replicates). MG132 = proteasome inhibitor;
(§9) 132 CHX = cycloheximide translational inhibitor. d) HeLa cells were treated for 72 h with and
(§10) 133 without NMT1/2 siRNA and treated with cycloheximide or MG132 for the indicated
(§11) 134 periods of time. Representative WBs are shown. Filled circles indicate treatment; empty
(§12) 135 circles indicate no treatment. e-h) Fold-change analysis of protein expression levels under
(§13) 136 the indicated conditions. Left: fold change after 8 h cycloheximide treatment of (e) Lyn,
(§14) 137 (f) Fyn, (g) Src and (h) THOC7. Right: fold change after 4 h MG132 treatment of (e) Lyn,
(§15) Untreated: purple; with NMT1/2 siRNA: blue (n = 3 […]
(§16) 412 serum (FBS). Cells were counted and diluted to 100,000 cells/mL. […]
(§17) 433 fraction was measured by MS (see Mass spectrometry measurements and raw file […]

THOC7 = THOC7 level after FLAG-DCAF10 overexpression; type: cell-based, human; conditions: HeLa, NMT1/2 KD 72 h, FLAG-DCAF10 overexpression 24 h
Protocol: as §1, §2, §3, §4, §5, §6, §7, §8, §9, §10, §11, §12, §13, §14, §15, §16, §17

Fyn = experiment: In vitro ubiquitination of immunoprecipitated Fyn; type: biochemical, human; conditions: DCAF10 pocket mutant complex
Source text: (§18) Having established cellular regulation by DCAF10 under reduced N-myristoylation, we aimed to test whether CUL4A-DDB1-DCAF10 directly ubiquitinates SFKs. […] As we expect NMT1/2 depletion to cause a destabilization of SFKs, their equal or even greater ubiquitination in IPs from untreated cells relative to NMT1/2-depleted cells was unanticipated. We speculate that (i) Nt-acetylated SFKs may degrade rapidly, preventing their accumulation upon NMT1/2 depletion; (ii) an acetylated fraction of SFKs may exist under physiological conditions; (iii) DCAF10 might recognize additional surfaces.
(§19) Reactions contained E1, UBCH5B (E2), ubiquitin, Mg-ATP in ligation buffer and were incubated with bead-bound substrates, followed by washing and immunoblot detection of ubiquitinated species (anti-ubiquitin), with loading controls (anti-Lyn, -Fyn, -Src or -GFP) (n = 3 independent enzymatic assays). Complete reagent lists, complex preparation, substrate IP conditions, wash buffers, and gel/blot parameters are provided in the Supplementary Methods and Tables.
(§20) 357 (v/v) glycerol, 2 mM TCEP, supplemented with Protease Inhibitor Cocktail), and lysed
(§21) 358 by sonication. Lysates were cleared by centrifugation at 28,000 rpm for 45 min at 4 °C […]
(§22) 382 EDTA, and loaded on a gradient gel (4–15%). Ubiquitination of substrates was assessed
(§23) 383 by WB using an anti-ubiquitin antibody. Equal substrate loading was evaluated by anti- […]

Lyn [2] = experiment: In vitro ubiquitination of immunoprecipitated Lyn; type: biochemical, human; conditions: DCAF10 pocket mutant complex
Source text: as §18, §19, §20, §21, §22, §23

Src = experiment: In vitro ubiquitination of immunoprecipitated Src; type: biochemical, human; conditions: DCAF10 pocket mutant complex
Source text: as §18, §19, §20, §21, §22, §23

Molecule | Lyn level, fold decrease compared to control cells (Lyn [1]) | THOC7 level (in words) (THOC7) | Fyn ubiquitination (in words) (Fyn) | Lyn ubiquitination (in words) (Lyn [2]) | Src ubiquitination (in words) (Src)
FLAG-DCAF10: FLAG-DCAF10 overexpression in HeLa cells (protein, UniProt Q5QP82 1-559, looked up, FLAG tag, FLAG-DCAF10 overexpression in HeLa cells) DDB1- and CUL4-associated …: MFPFGPHSPGGDGSAGAGAEEPTPHEGQAAATGPPSPLHPGADATHPPPPARSPRRPGAPSLSPAPRSGELGLPGAPESSTASAPGEPSPPSPPCRRPGPDCRAKSRGRHGLGAGLGGPGARLFGWLKERSLGRGLFVDPARDNFRTMTSLYGSIHPADSVYLSTRTHGAVFNLEYSPDGSVLTVACEQTEVLLFDPISSKHIKTLSEAHEDCVNNIRFLDNRLFATCSDDTTIALWDLRKLNTKVCTLHGHTSWVKNIEYDTNTRLLVTSGFDGNVIIWDTNRYTEDGCPHKKFFHTRFLMRMRLTPDCSKMLISTSSGYLLILHDLDLTKSLEVGSYPILRARRTTSSSDLTTSSSSSGPRVSGSPCHHSDSNSSEKHMSRASQREGVSPRNSLEVVTPEVLGESDHGNCITSLQLHPKGWATLLRCSSNSDDEECTCVYEFQEGAPVRPVSPRCSLRLTHYIEEANVGRGYIKELCFSPDGRMISSPHGYGIRLLGFDKQCSELVDCLPKEASPLRVIRSLYSHNDVVLTTKFSPTHCQIASGCLSGRVSLYQPKF | ~ 2.1 fold | remained unchanged |  |  | 
DCAF10 triple mutant: DCAF10 triple mutant (F172G, K257A, and I475G) in E3 complex (protein, left off: MBP (as in the WT complex; not said for the mutant), end not stated, state not stated) MFPFGPHSPGGDGSAGAGAEEPTPHEGQAAATGPPSPLHPGADATHPPPPARSPRRPGAPSLSPAPRSGELGLPGAPESSTASAPGEPSPPSPPCRRPGPDCRAKSRGRHGLGAGLGGPGARLFGWLKERSLGRGLFVDPARDNFRTMTSLYGSIHPADSVYLSTRTHGAVGNLEYSPDGSVLTVACEQTEVLLFDPISSKHIKTLSEAHEDCVNNIRFLDNRLFATCSDDTTIALWDLRKLNTKVCTLHGHTSWVANIEYDTNTRLLVTSGFDGNVIIWDTNRYTEDGCPHKKFFHTRFLMRMRLTPDCSKMLISTSSGYLLILHDLDLTKSLEVGSYPILRARRTTSSSDLTTSSSSSGPRVSGSPCHHSDSNSSEKHMSRASQREGVSPRNSLEVVTPEVLGESDHGNCITSLQLHPKGWATLLRCSSNSDDEECTCVYEFQEGAPVRPVSPRCSLRLTHYIEEANVGRGYGKELCFSPDGRMISSPHGYGIRLLGFDKQCSELVDCLPKEASPLRVIRSLYSHNDVVLTTKFSPTHCQIASGCLSGRVSLYQPKF |  |  | abolished ubiquitination of Lyn and Fyn | abolished ubiquitination of Lyn and Fyn | Src ubiquitination was unaffected by the mutations
